# From the DeepSol protein solubility set
# Assay: soluble on expression in E. coli; label from the status in PepcDB or PDB records
row,Sequence,soluble on expression in E. coli
1,MGSDKIHHHHHHMITVNDMSMQFSDRKLYSDVNLKFTPGNCYGIIGANGAGKSTFLKILEGKLQPTSGNVSISPNERMSSLNQDHYAFEEFTVMNTVIQGYKKLYEVMQAKDALYAKADFTEEDGMKAANLEAEFAEMDGWNAEAEASQLLQQLGIDESLHDSKMSELTEGQRIKVLLGQALFGKPDILILDEPTNGLDPKSISWLEDFLADFPNTVIVVSHDRHFLNSVCTMMCDVDFGKIELFVGNYDFWMESSALAKRLRENANAKKEEQIKELQEFVARFSANASKSKQATSRKKQLDKITLDDIKPSSRKYPFIRFEPARELGNDLVRVDKVSKSIDGVKILDNITFTVRPGEKAAILSQNDLATTVLMQILAGEMEPDSGSVTWGQTTERSYIPRDINSYFEDDRFDILEWLRQYAPKEESDNTFLRGFLGKMLFSGEDVLKNVTKLSGGEKVRCMISKTMLSKANVLILDDPTNHLDLESITALNEGLTSYKSSIIMTSHDHEFIQTIADHIIEVSDKGSVDRAETTYDEFLNHDAIQEQVSKLY,not soluble
2,MLRRGLSRPEPRLLSKRYLSSATGGGSAGTTEGGSSETTPLRPRPNALTDEIIRVDHAGELGADRIYAGQMAILGNGPLGKTIGHMWEQEKEHRKQFEQLIQQHRVRPTIMTPIWNVAGFVLGAGTALMGEKAAMACTVAVETVIVEHYNDQLRQIMEAPNPDKELLATITKFRDEEQEHHDTGIDHGAEQAPFYQAMTEVIKFGCKTAIAISKKILEHHHHHH,not soluble
3,MEEKVYLDKLAKRDIKPTAIRLLILKSMMEAGRAVSQLDLETLLDTVDKSTISRTITLFLSHHLIHSIDDGSGSWKYAVCDDSCNCVLKDLHSHFYCEKCHRTFCLEKIHIPVIDLPKGFTLHSVNYVVKGVCAECSKV,not soluble
4,MQSPPGKPEIHKCRSPDKETFTCWWNPGTDGGLPTNYSLTYSKEGEKTTYECPDYKTSGPNSCFFSKQYTSIWKIYIITVNATNQMGSSSSDPLYVDVTYIVEPEPPRNLTLEVKQLKDKKTYLWVKWSPPTITDVKTGWFTMEYEIRLKPEEAEEWEIHFTGHQTQFKVFDLYPGQKYLVQTRCKPDHGYWSRWSQESSVEMPNDFTLKDRSRSHHHHHH,soluble
5,MGSDKIHHHHHHMVQEIAQEIIRSARKKGTQDIYFVPKLDAYELHMRVGDERCKIGSYDFEKFAAVISHFKFVAGMNVGEKRRSQLGSCDYAYDHKIASLRLSTVGDYRGHESLVIRLLHDEEQDLHFWFQDIEELGKQYRQRGLYLFAGPVGSGKTTLMHELSKSLFKGQQVMSIEDPVEIKQDDMLQLQLNEAIGLTYENLIKLSLRHRPDLLIIGEIRDSETARAVVRASLTGATVFSTIHAKSIRGVYERLLELGVSEEELAVVLQGVCYQRLIGGGGIVDFASRDYQEHQAAKWNEQIDQLLKDGHITSLQAETEKISYS,not soluble
6,MQPTSITVASYNLRNANGGDSINGNGWGQRYPVIAQIVQYHDFDIFGTQECFIHQLKDMKEALPGYDYIGVGRDDGKEKGEHSAIFYRTDKFDVIEKGDFWLSETPDVPSKGWDAVLPRICSWGHFKCKDTGFEFLFFNLHMDHIGKKARVESAFLVQDKMKELGKGKELPAILTGDFNVDQTHQSYDAFVSKGVLCDSYEKAGFRYAINGTFNDFDPNSFTESRIDHIFVSPSFQVKRYGVLTDTYRSIVGKGEKKQANDCPEEIDIKTYQARTPSDHFPVKVELEFDQRQQKLEHHHHHH,soluble
7,MSLSVEAMIGQLNAEIKRLDRLIRSHLNQHPELKKDFDLLTSIKSVGYQLGLNMLVILRSHDFATAEQAAAFLGVVPVEKYSGTSVRGCPKLSKIGPPEIRAKLYLASLCGLRFNPLMKAMYERLCLRGKGKMCAIGALMRKLVHWCYGVLKTQKPFDVGYLSSYARSACKAAEGHHHHHH,soluble
8,MTKTLETQPEEKTVFLCKETNPDFLGREIYADNVETPYNFYLIRKLYLAKEYQNLAEGEQFFEALCESWDESEQFEELIVKKIYVYVETELMYYTVYFGSFEPTTRDLRSALKQWMYEIPTTKNKKTVRMNETNVQVVPQENQLTELAGEIAVLREMLTLLKENLASLNEAVNQTRNPVISRQIKTIHLKRASPVIAAEQASLKVSEDTNLEQPDVNLSPDNRENQEGETTVATSEPAPIKEALPEKKQENQQSTAAKPLFTFPQETEKSSLNSVNKSAEKEEEQKPEKEAVSMESEKENSSSRTIPADFQRQLDELEEEIYRRFMSRHLEDTDGNQAVPKITIEKRQLEAQMFEAKAFSQSFKQVQKKKAGDVRICNQLSCMKLEKGLDKFLDEVTEYVEKRTLFNKKVRCPLPVIRELEGYGQLNQYMQKILDCY,not soluble
9,GMVEPMTPRFKYTKASQENIQQLGNILEQCFVMSFGDSEIYVKGIGLENFRVIYREQKVAGGLAILPMGQWWGGQRVPMAGIAAVGIAPEYRGDGAAIALIQHTLQEISEQDIPISVLYPATQRLYRKAGYEQAGSSCVWEIPTDSIQIQHASLPLEPVVLKNNPIFHELYQQQAQLTHGYLDRHPAIWQGLNRTLDTETLYSYLIGDKDKPQGYIIFTQERTRDGSILRIRDWVTLSNPAVQSFWTFIANHRSQIDKVTWKSSVIDALTLLLPEQSATIRSQDRWMLRIVNVCKALEARGYPLGVEAELHLEVQDDLLATNQGKFILSVANGKSEVTKGGKGELQLDIKGLASLYTSLFTPRQLQLTGKLQATETALLKATQIFAGESPWMIDFF,soluble
10,MIKLAPAALKADLQVRQERVRIAMEEEGYDALLVTSNVNLLYLFGSIYGGAAYLPAEGEPIFFVRRPQVIEEGNVCPIRKLEDIPALIQSRGGVLPRRIMLENDESSYSDIKRQHSIFPNAEYGNATALLRRLRMIKTPGEIELFRRTAAIHGEVYACIPSVFRPGMTDREFQVEIEHLMRNYGSEGIFRTFGSAMEIHMGNVIVGDNAESPSPYDFAMGGGGTDALPLGADGSPMKEGMCVMVDMAGNYSAYISDMTRSYAIGKVPDEARRLHDLSREIQAKVMETAEPGMSCADLYKRSVEMAEEAGAADKFMGTKQQAKFVGHGIGLQINEMPVLMARSKEILTPGMVIAFEPKFVLPGIGAVGNENSFLVTESGVEKLTVCSEELIDLLAVAKQ,not soluble
11,MTGGFTPDSGRYHLYISHACPWAHRTMIFRTLKGLEDHITISAVHPDMLGEGWTFEPDDNGATGDTLYNSAFARDIYTRADPRFTGRVTVPILWDKQRETIVSNESSEIIRMFNAAFNGLTGNSDDYWPEPLRDAIAPVNERIYDTFNNGVYKAGFATTQQAYDAAIVPLFDTLDWLEERLSHNRYLMGDQLTEADWRLFTTLVRFDPVYHLHFKCNRKRIVDYPNLWGYTRELYQTPGVADTVNFDHIVRHYHYSHETINPNRIIPINPVLDFHRPHGRGLEHHHHHH,not soluble
12,MPGFSALSGGDKRQPEVNIGVVGHVDHGKTTLVQALTGVWTMRHSEEIRRGMTIKLGYADGEVWECEGCGFPERFSPEPVCECDPQASASLRRRVSYVDAPGHEILMATMLSGAALMDGALLVVAANEPCPQPQTKEHLVALEIIGIKNIVIVQNKVDVVSRERAKESYQEILNFIKGTIAEGSPIIPVSALKRANIDAVLAAIEKFIPTPPRDLDKPPVMYISRSFDVNRPGTPPERLVGGVVGGSIIQGVFRVGDEIEISPGVAVRKPGGRVEYVRLHTTITSLRFGSIEVEEARPGGLVAIGTQLDPSVTKADNLVGNVVGKPGELPEPLTTLRIEHHLLEKVVGMKEEARVEPIRRGEMLMLSVGTAITLGVVTRAGKDEIEVQLRRPVVTWPKARVALSRRIMGRWRLIGWGLIK,soluble
13,MIYEGKAITVTALESGIVELKFDLKGESVNKFNRLTLNELRQAVDAIKADASVKGVIVSSGKDVFIVGADITEFVENFKLPDAELIAGNLEANKIFSDFEDLNVPTVAAINGIALGGGLEMCLAADFRVMADSAKIGLPEVKLGIYPGFGGTVRLPRLIGVDNAVEWIASGKENRAEDALKVSAVDAVVTADKLGAAALDLIKRAISGELDYKAKRQPKLEKLKLNAIEQMMAFETAKGFVAGQAGPNYPAPVEAIKTIQKAANFGRDKALEVEAAGFAKLAKTSASNCLIGLFLNDQELKKKAKVYDKIAKDVKQAAVLGAGIMGGGIAYQSASKGTPILMKDINEHGIEQGLAEAAKLLVGRVDKGRMTPAKMAEVLNGIRPTLSYGDFGNVDLVVEAVVENPKVKQAVLAEVENHVREDAILASNTSTISISLLAKALKRPENFVGMHFFNPVHMMPLVEVIRGEKSSDLAVATTVAYAKKMGKNPIVVNDCPGFLVNRVLFPYFGGFAKLVSAGVDFVRIDKVMEKFGWPMGPAYLMDVVGIDTGHHGRDVMAEGFPDRMKDDRRSAIDALYEAKRLGQKNGKGFYAYEADKKGKQKKLVDSSVLEVLKPIVYEQRDVTDEDIINWMMIPLCLETVRCLEDGIVETAAEADMGLVYGIGFPLFRGGALRYIDSIGVAEFVALADQYAELGALYHPTAKLREMAKNGQSFFG,soluble
14,MGSDKIHHHHHHMENVPLLQVNKMSKAFSNQLVLKEVNLQVERGDIYALVGGNGAGKSTLMKILTGLYSYDDGEMYVKGTKQQFANPSEAHRKGIYLIPQEPLIFPHMTIEENICIGLTEKKKKLRVQIEQLINSLGWDIDLNELGGSLSIAQQQLVEIVRGLIREAEILILDEPTSTLTTHEIKSLFVLMKSLQEKGIGMIYITHRFPEIFEIANKVAILRDGMIVSQGDVCDYTYDMLMEGLLPKGYKQKEKIEVVQETARTKKILEVIDITSHAFKNISFTVHADEIVGVAGIIGSGRTELAEAIFGLKTIKSGSILLEGKSIDACSLHKRLEKGLVYVPEDRARNGIFSIASVKENIAAASLQQNNRFFINQEKESALVNSFIEQFRIVVQNMNEELVSLSGGNQQKVVLAKYLACNPKIIILDEPTRGIDAKARIEVYETIEKMKREGLAILLISSDVEEIVQLANRVYVMRNGRFVSYMEKEQLSVNEVTRLAYGGVAE,not soluble
15,MSLGRKQQYGTLASIAAKLGISRTTVSNAYNRPEQLSAELRQRILDTAEDMGYLGPDPVARSLRTRRAGAIGVLLTEDLTYAFEDMASVDFLAGVAQAAGDTQLTLIPASPASSVDHVSAQQLVNNAAVDGVVIYSVAKGDPHIDAIRARGLPAVIADQPAREEGMPFIAPNNRKAIAPAAQALIDAGHRKIGILSIRLDRANNDGEVTRERLENAQYQVQRDRVRGAMEVFIEAGIDPGTVPIMECWINNRQHNFEVAKELLETHPDLTAVLCTVDALAFGVLEYLKSVGKSAPADLSLTGFDGTHMALARDLTTVIQPNKLKGFKAGETLLKMIDKEYVEPEVELETSFHPGSTVAEGHHHHHH,soluble
16,AHHHHHHGSEEKIILFVCVKNSARSQMAEAFFNYYNDDPRFKAMSAGTEPADDIDPLAKKVMEEIGISLEGQKPKLYTPEMADKAYIVITMGCLDKCPYAPPEKTWDWGLEDPYGKPIEKYREVRDEIKRRVLKLIEDLKAGKSREEIIGRKSLFAI,soluble
17,MMKFDNSYAHLPERFSAAVLPTPVKAPRLIAFNRTLAEELLLDVADLDDDRLAAIFSGNVVPQGAEPLAMAYAGHQFGGFVPQLGDGRAILLGEVIDVNGRRRDIQLKGSGPTPFSRRGDGRAALGPVLREYIVSEAMFALGIPATRALAAVLSGDRVQREVGLPGGVFTRVAASHIRVGTFQFFAAREDDEAIRSLADYVIDRHYPDAKNTENPYLALLRGIAERQCALIARWMMVGFIHGVMNTDNMAVSGETIDFGPCAFLDEYHPNKVFSSIDAQGRYAYNNQPGIAQWNIARLAECLLPLLDPEVEKAAELANAVLADFAAAFPQRWLTGMREKLGLTTEEEGDMDLIQSLLSLMQASEADFTLTFRRLSHAANGDAEPFRGMFIDIAGADAFLTRWRERAGREGISDSERSAAMLSINPAIIPRNHRIEELIEAAVEDGDFEPFHAMLTAIATPFEERPDNFVYMQPPMSHERVFRTFCGTLEHHHHHH,soluble
